The values that follow come from patent publication US20260184782A1 (TWIST BIOSCIENCE, published 2026).

Assay [1] has as its target T1, TIGIT on PBMCs (UniProt Q495A1 22-244, limits assumed).
T1 sequence (looked up): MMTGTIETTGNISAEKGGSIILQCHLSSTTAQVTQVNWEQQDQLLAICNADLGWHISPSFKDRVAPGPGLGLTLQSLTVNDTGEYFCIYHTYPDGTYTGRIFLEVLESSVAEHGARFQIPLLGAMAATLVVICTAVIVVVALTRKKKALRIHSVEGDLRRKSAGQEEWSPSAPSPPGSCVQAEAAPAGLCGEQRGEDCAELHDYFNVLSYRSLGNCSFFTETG
In words: cell-based or functional assay.

Assay [2] concerns the target T2, human TIGIT-Fc (human, UniProt Q495A1 22-141, limits assumed).
T2 construct: not shown: Fc; not described
T2 sequence (looked up): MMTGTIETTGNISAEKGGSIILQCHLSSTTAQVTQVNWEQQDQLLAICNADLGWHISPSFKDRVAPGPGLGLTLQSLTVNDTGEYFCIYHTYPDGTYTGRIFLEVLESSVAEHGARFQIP
Kind of assay: CD155 competition ELISA, titration. As to the method: (§1) TIGIT/CD155 inhibition of VHH-Fcs were assessed using an ELISA assay (Table 10B). Briefly, human TIGIT-Fc was coated on a plate & then incubated with VHH-Fcs and human CD155-biotin. Bound CD155-biotin was detected using a streptavidin-HRP conjugate visualized with TMB. Strong inhibitors from the single point screen were titrated to determine EC50 (Table 10C).

Assay [3] deals with T2, human TIGIT-Fc. Kind of assay: CD155 competition ELISA, single point. Here is the method:
as §1

Assay [4] has as its target T3, TIGIT (UniProt Q495A1 22-141, limits assumed).
T3 construct: construct not described; also called T cell immunoreceptor with Ig and ITIM domains
T3 sequence (looked up): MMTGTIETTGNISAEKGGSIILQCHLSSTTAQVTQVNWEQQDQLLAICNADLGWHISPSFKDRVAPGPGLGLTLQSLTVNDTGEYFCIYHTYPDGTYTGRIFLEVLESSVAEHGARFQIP
In words: Carterra SPR, VHH-Fc.

Assay [5] concerns the target T4, TIGIT (T cell immunoreceptor with Ig and ITIM domains) (UniProt Q495A1 22-141, limits assumed).
T4 sequence (looked up): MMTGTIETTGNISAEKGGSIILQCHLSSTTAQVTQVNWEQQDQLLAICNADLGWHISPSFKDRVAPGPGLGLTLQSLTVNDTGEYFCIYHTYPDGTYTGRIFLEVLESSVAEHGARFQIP
Kind of assay: SPR (Carterra), VHH-Fc. From the text: The Carterra SPR system was used to assess binding affinity and affinity distribution for VHH-Fc variants. […] Table 5A provides specific values for the VHH-Fc clones for ELISA, Protein A (mg/ml), and KD (nM). FIG. 7A and FIG. 7B depict TIGIT affinity distribution for the VHH libraries, over the 20-4000 affinity threshold (FIG. 7A; monovalent KD) and the 20-1000 affinity threshold (FIG. 7B; monovalent KD).

Assay [6] addresses T4, TIGIT (T cell immunoreceptor with Ig …). Kind of assay: ELISA, VHH-Fc clone on TIGIT.

B1: TIGIT-SC41 (Fc fusion)
VHH: EVQLVESGGGLVQPGGSLRLSCAASGMTTIGPMGWFRQAPGKEREFVASIAWGDGNTYYADSVKGRFTISADNSKNTAYLQMNSLKPEDTAVYYCVRGGSRTLWGQGTLVTVSS
notes: VHH-Fc
On to B1, for which the “T-cell activation EC50” value in assay [1] came to 1.83 nM. Besides, the EC50 in assay [2] was 10 nM. Also, in assay [3], the “OD (450 nm)” value was 0.0921 OD.

B2: TIGIT-SC24 (Fc fusion)
VHH: EVQLVESGGGLVQPGGSLRLSCAASGFTFDRSWMGWFRQAPGKEREVVASITSGGSTYYADSVKGRFTISADNSKNTAYLQMNSLKPEDTAVYYCAADVWYGSTWRNWGQGTLVTVSS
notes: VHH-Fc
On to B2, for which the “T-cell activation EC50” value in assay [1] is 7.53 nM. The molecule also had an EC50 in assay [2] of 0.423 nM. The “OD (450 nm)” value in assay [3] amounted to 0.0781 OD.

B3: TIGIT-SC63 (Fc fusion)
VHH: EVQLVESGGGLVQPGGSLRLSCAASGRAIGSYGMGWFRQAPGKEREFVATISVSGVYTYYADSVKGRFTISADNSKNTAYLQMNSLKPEDTAVYYCARATPGGVVPWGQGTLVTVSS
notes: VHH-Fc
On to B3, for which the “T-cell activation EC50” value in assay [1] came to 88.1 nM. The half-maximal effective concentration (EC50) in assay [2] came out at 135 nM. The “OD (450 nm)” value in assay [3] was 0.0781 OD.

B4: TIGIT-SC97 (Fc fusion)
VHH: EVQLVESGGGLVQPGGSLRLSCAASGTAASFNPMGWFRQAPGKEREFVAAISWSGGSTNYADSVKGRFTISADNSKNTAYLQMNSLKPEDTAVYYCVTYSAYDFRNAWGQGTLVTVSS
notes: VHH-Fc
For the molecule B4, the “T-cell activation EC50” value in assay [1] worked out at 7.11 nM. Further, the EC50 in assay [2] amounted to 0.971 nM. The “OD (450 nm)” value in assay [3] was 0.111 OD.

B5: TIGIT-29-01 VHH-Fc (Fc fusion)
chain: EVQLVESGGGLVQAGGSLRLSCAASGRTFSNYAMGWFRQAPGKEREFVAAITWSGTRTDYADSVKGRFTISADNAKNTVYLQMNSLKPEDTAVYYCAAAAWTIYEYDYWGQGTQVTVSSGGGGSEPKSSDKTHTCPPCPAPELLGGPSVFLFPPKPKDTLMISRTPEVTCVVVDVSHEDPEVKFNWYVDGVEVHNAKTKPREEQYNSTYRVVSVLTVLHQDWLNGKEYKCKVSNKALPAPIEKTISKAKGQPREPQVYTLPPSREEMTKNQVSLTCLVKGFYPSDIAVEWESNGQPENNYKTTPPVLDSDGSFFLYSLTVDKSRWQQGNVFSCSVMHEALHNHYTQKSLSLSPG
notes: also called 29-1
In assay [4], B5 returned a Kd of 68 nM and a kon of 1e+09 M⁻¹ s⁻¹.

B6: TIGIT-29-01 (Fc fusion)
chain: EVQLVESGGGLVQAGGSLRLSCAASGRTFSNYAMGWFRQAPGKEREFVAAITWSGTRTDYADSVKGRFTISADNAKNTVYLQMNSLKPEDTAVYYCAAAAWTIYEYDYWGQGTQVTVSSGGGGSEPKSSDKTHTCPPCPAPELLGGPSVFLFPPKPKDTLMISRTPEVTCVVVDVSHEDPEVKFNWYVDGVEVHNAKTKPREEQYNSTYRVVSVLTVLHQDWLNGKEYKCKVSNKALPAPIEKTISKAKGQPREPQVYTLPPSREEMTKNQVSLTCLVKGFYPSDIAVEWESNGQPENNYKTTPPVLDSDGSFFLYSLTVDKSRWQQGNVFSCSVMHEALHNHYTQKSLSLSPG
notes: VHH-Fc; also called 29-1
B6: in assay [5], the affinity, expressed as Kd, was 68 nM. Besides, the ELISA in assay [6] was 10.4.

B7: TIGIT-SC58 (Fc fusion)
VHH: EVQLVESGGGLVQPGGSLRLSCAASGFTLGYYVMGWFRQAPGKEREFVATINWSGTLTSYADSVKGRFTISADNSKNTAYLQMNSLKPEDTAVYYCARWVGPKYYFDYWGQGTLVTVSS
notes: VHH-Fc
For B7, the “T-cell activation EC50” value in assay [1] turned out to be 2.08 nM. The EC50 in assay [2] turned out to be 0.303 nM. The “OD (450 nm)” value in assay [3] was found to be 0.0846 OD.
